Assay [1] deals with T1, SARS-CoV-2 C14S,C23S,C73S NSP9 (triSer-NSP9) (SARS-CoV-2, UniProt P0DTC1 4141-4253).
T1 construct: also called NSP (dissolved in ammonium acetate); INS (dissolved in DMSO and diluted in PBS)
T1 chain: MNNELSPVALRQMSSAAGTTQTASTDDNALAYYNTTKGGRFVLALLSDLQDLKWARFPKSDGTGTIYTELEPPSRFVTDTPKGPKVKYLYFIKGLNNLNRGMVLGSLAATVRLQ
Kind of assay: ELISA signal on NSP over uncoated blocked well. (In general: In an ELISA, binding on a coated surface is turned into a signal by an enzyme label.)

Assay [2] concerns the target T1, SARS-CoV-2 C14S,C23S,C73S NSP9 …. Kind of assay: ELISA signal on INS over uncoated blocked well.
For assay [3], the target named is T2, SARS-CoV-2 C14S,C23S,C73S NSP9 (triSer-Nsp9) (SARS-CoV-2, UniProt P0DTC1 4141-4253).
T2 construct: also called NSP (dissolved in ammonium acetate); INS (dissolved in DMSO/PBS)
T2 chain: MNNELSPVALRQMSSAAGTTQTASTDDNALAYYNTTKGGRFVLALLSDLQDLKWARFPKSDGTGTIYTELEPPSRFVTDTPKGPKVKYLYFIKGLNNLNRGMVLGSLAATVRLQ
Kind of assay: ELISA, periplasmic extract; Nsp9 in ammonium acetate (NSP) coated.

Assay [4] has as its target T2, SARS-CoV-2 C14S,C23S,C73S NSP9 …. Kind of assay: ELISA signal on INS over uncoated blocked blank.
Assay [5] has the same target. Kind of assay: ELISA signal on NSP over uncoated blocked blank.
Assay [6] shares this target. Kind of assay: ELISA, periplasmic extract; Nsp9 in DMSO/PBS (INS) coated.

B1: 2INS45 (VHH)
VHH: QVQLQESGGGLVQAGGSLRLSCAASGFTLSSNDMGWYRQAPGKQRELVATITSGLSTNYADSVKGRFTISRDNAKNTVFLQMNSLKIEDTAVYYCEVERGWGPPRDYWGHGTQVTVSS
Consider B1, for which the NSP/control in assay [1] stood at 45. In addition, the INS/control in assay [2] turned out to be 26.9.

B2: 2NSP23 (VHH)
VHH: QVQLQESGGGLVQPGGSLRLSCAASGLAFSMYTMGWFRQAPGKEREFVAMIISSGDSTDYADSVKGRFTISRDNGKNTVYLQMDSLKPEDTAVYYCAAPKFRYYFSTSPGDFDSWGQGTQVTVSS
As for B2, the “ELISA NSP” value in assay [3] is 4.28. The molecule further gave an INS/control in assay [4] of 16.8. Moreover, in assay [5], the NSP/control worked out at 41.8. Also, the “ELISA INS” value in assay [6] stood at 1.72.

B3: 3NSP29 (VHH)
VHH: QVQLQESGGGLVQAGGSLRLSCAASGRTFSRYAMGWFRQAPGKERESVAAINWSGTSIFYANSVEGRFTISRDNAKNTVYLQLNSLKPEDTAVYYCGVVLNGMPYWGRGTQVTVSS
The molecule B3 displayed an NSP/control in assay [1] of 3.85. In assay [2], this molecule returned an INS/control of 1.84.

B4: 3NSP56 (VHH)
VHH: QVQLQESGGGLVQAGGSLRLSCAASGRTFSRYAMGWFRQAPGKERESVAAINWSGTSIFYANSVEGRFTISRDNAKNTVYLQLNSLKPEDTAVYYCAADLVRNYRLGWGDGVYDHYGQGTQVTVSS
For the molecule B4, the NSP/control in assay [1] is 5.47. In addition, the INS/control in assay [2] came out at 2.61.

B5: 2INS64 (VHH)
VHH: QVQLQESGGGLVQVGGSLRLSCAASGSILSINAMGWYRQAPGKQRELVAAITSGGSTNYADSVKGRFTISRDNAKNMLYLQMNSLKPEDTAVYYCHVVTGWGPLDWGQGTQVTVSS
As for B5, the NSP/control in assay [1] came out at 45.2. In addition, the INS/control in assay [2] amounted to 26.7.

B6: 2NSP90 (VHH)
VHH: QVQLQESGGGLVQTGDSLRLSCAVSGRTFSTYSVGWFRQAPGKEREFVALRWSGGTTYYADSVVGRFTVSRDNAKNTVYLEMNSLKPEDTAVYYCAADRGSGSYSPTYRWDYWGQGTQVTVSS
Take B6: in assay [3], the “ELISA NSP” value is 4.78. The molecule further returned an INS/control in assay [4] of 21. In assay [5], this molecule gave an NSP/control of 50.8. The “ELISA INS” value in assay [6] worked out at 1.98.

B7: 3NSP78 (VHH)
VHH: QVQLQESGGGLVQAGGSLRLSCAASGRAFSSYVMGWFRQAPGKEREFVAAIHWTGAATVYVDSVKGRFAISRHNAKNTVYLEMNSLKPEDTAVYYCAADPSGSYWPPKRYDYWGQGTQVTVSS
The molecule B7 yielded an NSP/control in assay [1] of 47.2. Besides, the INS/control in assay [2] was 28.6.

B8: 2INS61 (VHH)
VHH: QVQLQESGGGLVQAGGSLRLSCAASGSIFSINTMGWYRQAPGKQRELVAAITSGGSTNYADSVKGRFTISRDNAKNTVHLQMNSLKPEDTAVYYCNVVEGWGPPVGYWGQGTQVTVSS
Consider B8, for which the “ELISA NSP” value in assay [3] came out at 5.36. The INS/control in assay [4] was 2.75. For the same molecule, in assay [5], the NSP/control worked out at 8.02. The “ELISA INS” value in assay [6] came to 1.84.

B9: 3INS39 (VHH)
VHH: QVQLQESGGGLVQAGGSLRVSCEVSGIMFGINTMGWYRQAPGKQRELVAHITSSGSTNYADSVKGRFTISRDNAKKTVYLQMNSLKPEDTAVYYCNVVAGWGPPPGYWGQGTQVTVSS
As to B9, the “ELISA NSP” value in assay [3] was 4.07. In assay [4], the INS/control came out at 2.7. The same molecule registered an NSP/control in assay [5] of 4.42. Moreover, the “ELISA INS” value in assay [6] came out at 2.49.

B10: 3NSP52 (VHH)
VHH: QVQLQESGGGLVQPEGSLRLSCAASGLTFDSYAIGWFRQAPGKEREFVAASIWSGDSGHYTGSVKGRFTISRDNAKNTVDLQMNSLKPEDTAVYYCAASASFLHSANYHMRAKWGYWGQGTQVTVSS
Take B10: in assay [3], the “ELISA NSP” value came to 2.91. This molecule also gave an INS/control in assay [4] of 23.6. The molecule further yielded an NSP/control in assay [5] of 34.2. Moreover, in assay [6], the “ELISA INS” value was found to be 2.

B11: 2INS69 (VHH)
VHH: QVQLQESGGGLVRAGDSLRLSCAVSGRTFSSVAMGWFRQAPGKEREFVAFISGSTGSVTYYADSVKGRFAISRDNAKNTVYLQMNSLKPEDTAVYDCAAKFTGTFNYQGLYDYWGQGTQVTVSS
In assay [1], B11 registered an NSP/control of 13.8. For the same molecule, the INS/control in assay [2] stood at 14.1.

B12: 2INS27 (VHH)
VHH: QVQLQESGGGLVQAGGSLRLSCATSGSIFSSAVMGWYRQAPGNERELVALIGSSDTTDYSNSVKGRFTISRDNAKNTAYLRMNSLKPEDTAVYYCTAVKYGLGGFVYWGQGTQVTVSS
For B12, the “ELISA NSP” value in assay [3] was 2.77. Further, the INS/control in assay [4] was 31.3. This molecule returned an NSP/control in assay [5] of 28.9. In addition, the “ELISA INS” value in assay [6] worked out at 3.

The values above are taken from patent publication US20240301039A1 (NEW YORK UNIVERSITY IN ABU DHABI, published 2024).
